T1: bacterial ribosomal protein bS1, M. smegmatis (M. smegmatis, UniProt A0QYY6 1-479)
T1 construct: ribosomal protein bS1 of M. smegmatis; only the two N-terminal domains OB1 and OB2 are visible in the map, the rest is disordered; Stood in the assay as a part of the 70S ribosome; the model was begun from AlphaFold2 and docked in the map; also called bS1 r-protein; source: endogenous, in ribosomes purified from M. smegmatis MC2 155
T1 sequence (looked up): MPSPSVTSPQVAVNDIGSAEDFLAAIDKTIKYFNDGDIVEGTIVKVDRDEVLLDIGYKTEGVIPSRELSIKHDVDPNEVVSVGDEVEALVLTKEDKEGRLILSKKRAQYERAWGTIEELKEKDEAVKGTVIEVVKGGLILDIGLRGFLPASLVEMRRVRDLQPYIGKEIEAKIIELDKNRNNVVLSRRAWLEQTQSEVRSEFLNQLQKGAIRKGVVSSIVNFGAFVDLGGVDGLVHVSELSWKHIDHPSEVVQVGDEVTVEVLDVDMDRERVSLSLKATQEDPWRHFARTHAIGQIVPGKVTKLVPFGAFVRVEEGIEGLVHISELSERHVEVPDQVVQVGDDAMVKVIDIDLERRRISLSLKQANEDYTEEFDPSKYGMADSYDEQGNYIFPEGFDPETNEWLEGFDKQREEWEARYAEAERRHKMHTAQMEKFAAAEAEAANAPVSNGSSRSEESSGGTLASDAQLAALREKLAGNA

B1: RafH (ribosome associated factor under hypoxia), M. smegmatis (natural protein, UniProt A0QZ86 1-258, looked up)
chain: MDVDVSTDGELPGAAEYAREKIGRLSRRAHRPVLHARVRLTRHGDPAVERPVIAQANLDVNGRQVRAQVEGVNAREAVDRLEARLRSRLERIAEHWEARRGGVPAEAGREWRHESEPARRPGYFPRPPEERRIIRRKSFSMVPCTVDEAALEMEMLDYDFHLFTEKGTGFAAVLYKGGPTGYRLVLVIPVPADELSPFEKPITISTHPAPCLTQRDAVERLGLLGLPFLFYIDAAEGRASVIYRRYDGHYGLITPADG
notes: RafH of M. smegmatis, gene MSMEG_3935, 258 amino acid residues (~30 kDa): NTD 1-100, linker 101-130, CTD 131-258; gene synthesised (GenScript) and cloned in pET-28a(+); the methods say only that the gene MSMEG_3935 was cloned; also called MSMEG_3935; source: E. coli C41(DE3), purified (Ni-NTA, size-exclusion chromatography)

Assays:
[1] = target: B1; experiment: cryo-EM structure; single particle cryo-EM of the in-vitro reconstituted 70S ribosome RafH complex (Titan Krios 300 kV, Falcon 3, Relion 3.1.4); overall 2.8 Å; maps with bS1 or E-site tRNA low pass filtered to 3.5 Å; details: both partners purified
[2] = target: T1, bacterial ribosomal protein bS1, M. …; experiment: as above; details: both partners purified

| Binder | binding result [1] | binding result [2] |
| --- | --- | --- |
| ribosomal protein uS9, M. smegmatis (natural protein, UniProt A0QSP9 1-150, looked up, ribosomal protein uS9 of M. smegmatis; C-terminal residue R150; Stood in the assay as a part of the 70S ribosome; also called r-protein uS9; source: endogenous, in ribosomes purified from M. smegmatis MC2 155) MTDVTETEVVTESAEPREPVIIDRPIQTVGRRKEAVVRVRLVPGTGQFNLDGRTLENYFPNKVHQQLIKAPLVTVDRVDQFDIYAHLDGGGPSGQAGALRLAIARALILVQPEDRPALKKAGFLTRDPRAIERKKYGLKKARKAPQYSKR | binds |  |
| ribosomal protein uS11, M. smegmatis (natural protein, ribosomal protein uS11 of M. smegmatis; Stood in the assay as a part of the 70S ribosome; also called uS11 r-protein; source: endogenous, in ribosomes purified from M. smegmatis MC2 155) not shown | binds |  |
| B1 |  | binds |
| ribosomal protein uS2, M. smegmatis (natural protein, UniProt A0QVB8 1-277, looked up, ribosomal protein uS2 of M. smegmatis; Stood in the assay as a part of the 70S ribosome; also called uS2 r-protein; source: endogenous, in ribosomes purified from M. smegmatis MC2 155) MAVVTMKQLLDSGAHFGHQTRRWNPKMKRFIFTDRNGIYIIDLQQTLTYIDKAYEFVKETVAHGGTVLFVGTKKQAQESIAEEATRVGMPYVNQRWLGGMLTNFSTVHKRLQRLKELEAMEQTGGFEGRTKKEILMLTREKNKLERSLGGIRDMQKVPSAVWVVDTNKEHIAVGEARKLGIPVIAILDTNCDPDVVDYPIPGNDDAIRSAALLTKVIASAVAEGLQARAGQGSGEKPAEGAEPLAEWEQELLAGATAGAADASAEGAAAPESSTDAS |  | binds |

Source: article PMC10799931, “Cryo- EM structure of the mycobacterial 70S ribosome in complex with ribosome hibernation promotion factor RafH” (Nature Communications, 2024)
